Assay results published in patent US7125697B2, “Luciferase and photoprotein” (Chisso Corporation, priority 2000, dated 2006).

Columns and labels:
[1] = Luminescence activity of proteins expressed in cell-free in vitro transcription-translation system; assay type: biochemical; settings: no microsomal membrane (−); 1 μg coelenterazine
Excerpt: Using the expression vector, pKAZ-CMV, PSKAZ-CMV, pOL-CMV or pSOL-CMV prepared in Example 10, the 19 kDa or 35 kDa protein constituting Oplophorus luciferase was expressed by means of the in vitro transcription-translation system. As a positive control, pRL-CMV expressing Renilla luciferase was used. The in vitro transcription-translation system is capable of producing a protein from a recombinant plasmid or mRNA prepared from the plasmid and is particularly useful for the luminescence system with high sensitivity for the detection. In this Example, a commercially available in vitro translation kit (TNT in vitro transcription/translation kit; Promega) was used. A fraction of microsomal membranes capable of cleaving the signal sequence for secretion was also added in order to confirm the existence of the signal sequence in the expressed proteins. The in vitro translation mixture (25 μl in total) containing 0.5 μg of the plasmid DNA, 20 μl of rabbit reticulocyte lysate, 1 μl of 1 mM methionine and 2.5 μl of microsomal membranes was incubated at 30° C. for 90 min and then 1 μl of the mixture was subjected to the measurement of its luminescent activity. […] The reaction was started by the addition of a test sample and the intensity of the luminescence was measured by the luminometer.

[2] = Luminescence activity after expression in COS7 cells, coelenterazine substrate; assay type: cell-based; settings: for Luminescence activity in Cell extracts, Coelenterazine: COS7 cell extracts; for Luminescence activity in Medium, Coelenterazine: COS7 culture medium
Procedure: (§1) Expression of the proteins as a component of Oplophorus luciferase in mammalian cultured cells COS7 was conducted using the expression plasmids pKAZ-CMV, PSKAZ-CMV, pOL-CMV and pSOL-CMV constructed in Example 10 and pRL-CMV expressing Renilla luciferase as a control for the transfection of the host. COS7 cells (2×10^5 cells) were grown in a 35 mm well-plate containing 3 ml of Dulbecco's modified Eagle's media (Gibco BRL, Rockville, Md., USA) supplemented with 10% (v/v) heat-inactivated fetal calf serum (Gibco BRL), 100 U/ml penicillin and 100 μg/ml of streptomycin. The cells were cultured at 37° C. for 24 hours and then transfected with 2 μg of each plasmid DNA using FuGENE6 transfection reagent (Rosche Diagnostics, Mannheim, Germany). After further incubation for 36 hours, cells were separated from cultured media by centrifugation. The separated cells were suspended in 0.5 ml of phosphate-buffered saline, and subjected to repeated freeze-thawing at a temperature between 37° C. and −80° C. to obtain a cell extract. One μg of coelenterazine or bisdeoxy-coelenterazine was added as a substrate into the cell extract and the intensity of the luminescence was measured by the luminometer.

[3] = Luminescence activity after expression in COS7 cells, bisdeoxy-coelenterazine substrate; assay type: cell-based
Procedure: as §1

[4] = Renaturation of urea-solubilized 19 kDa protein with glycerol, luminescence activity; assay type: biochemical; settings: for Luminescence Activity: 25° C., 30 minutes; for Luminescence Activity, relative value in parentheses: relative to 0 % glycerol
Procedure: E. coli cells constructed in Example 12 which contain the expression vector pHis-KAZ and express the 19 kDa protein were disrupted by the sonication in 20 ml of a buffer comprising 20 mM Tris-HCl, pH 7.5. After centrifugation (12,000×g, 20 minutes), the precipitated fraction was subjected to the solubilization by treating with 20 ml of 20, mM Tris-HCl, pH 7.5 containing 8 M urea and then centrifuged (12,000×g, 20 minutes) to afford a soluble fraction. […] Subsequently, the soluble fraction was subjected to the nickel-chelated column chromatography and the desired protein was eluted by the linear gradient of imidazole from 0 to 0.3 M to give approximately 95% purity.
Consequently, the protein was subjected to the renaturation step by treating with glycerol (the final concentration: from 0 to 90% (v/w)) as a solvent at 25° C. for 30 minutes to afford the 19 kDa protein renatured. As described above, the intensity of the luminescence was measured by the luminometer.

[5] = Preservation test of renatured 19 kDa protein, luminescence activity; assay type: biochemical; settings: for luminescence activity on preservation: 4° C.; for Luminescence activity after preservation: 4 ° C.
Procedure: Subsequently, the 19 kDa protein renatured was subjected to the preservation test, which comprises preserving the protein in the absence or presence of 50% (v/w) or 70% (v/w) glycerol at 4° C. for 30 days and then measuring its luminescence activity as mentioned above.

B1: 19 kDa Protein: 19 kDa photoprotein component of Oplophorus luciferase, positions 28–196 of SEQ ID NO: 2, without signal sequence (protein, listed as Oplophorus gracilorostris)
chain: FTLADFVGDWQQTAGYNQDQVLEQGGLSSLFQALGVSVTPIQKVVLSGENGLKADIHVIIPYEGLSGFQMGLIEMIFKVVYPVDDHHFKIILHYGTLVIDGVTPNMIDYFGRPYPGIAVFDGKQITVTGTLWNGNKIYDERLINPDGSLLFRVTINGVTGWRLCENILA
[1]
  Luminescence Activity: 1242.0 rlu
[2]
  Luminescence activity in Cell extracts, Coelenterazine: 2,273.0 rlu
  Luminescence activity in Medium, Coelenterazine: 3.62 rlu
[2]; COS7 cells
  luminescent intensity compared with pRL-CMV: equivalent to that from pRL-CMV
[3]
  Luminescence activity in Cell extracts, Bisdeoxy-coelenterazine: 2,124.0 rlu
[4]; after 8 M urea solubilization and nickel-chelated column, before glycerol
  luminescence activity before renaturation: no luminescence activity
[4]; glycerol 0 % v/w
  Luminescence Activity: 83 rlu
  Luminescence Activity, relative value in parentheses: (1.0)
[4]; glycerol 10 % v/w
  Luminescence Activity: 147 rlu
  Luminescence Activity, relative value in parentheses: (1.8)
[4]; glycerol 20 % v/w
  Luminescence Activity: 375 rlu
  Luminescence Activity, relative value in parentheses: (4.5)
[4]; glycerol 30 % v/w
  Luminescence Activity: 1,258 rlu
  Luminescence Activity, relative value in parentheses: (15.2)
[4]; glycerol 40 % v/w
  Luminescence Activity: 1,818 rlu
  Luminescence Activity, relative value in parentheses: (24.9)
[4]; glycerol 50 % v/w
  Luminescence Activity: 3,822 rlu
  Luminescence Activity, relative value in parentheses: (46.0)
[4]; glycerol 60 % v/w
  Luminescence Activity: 4,860 rlu
  Luminescence Activity, relative value in parentheses: (58.6)
[4]; glycerol 70 % v/w
  Luminescence Activity: 4,462 rlu
  Luminescence Activity, relative value in parentheses: (53.8)
[4]; glycerol 80 % v/w
  Luminescence Activity: 2,842 rlu
  Luminescence Activity, relative value in parentheses: (34.2)
[4]; glycerol 90 % v/w
  Luminescence Activity: 2,536 rlu
  Luminescence Activity, relative value in parentheses: (30.6)
[5]; absence of glycerol, 30 days
  luminescence activity on preservation: significantly decreased
[5]; glycerol 0 % v/w, 0 day
  Luminescence activity after preservation: 102 rlu
[5]; glycerol 0 % v/w, 30 days
  Luminescence activity after preservation: 23 rlu
[5]; glycerol 50 % v/w, 0 day
  Luminescence activity after preservation: 3,840 rlu
[5]; glycerol 50 % v/w, 30 days
  Luminescence activity after preservation: 3,734 rlu
[5]; presence of glycerol (50% or 70% v/w), 30 days
  luminescence activity on preservation: maintained without decreasing

B2: 35 kDa Protein: 35 kDa protein component of Oplophorus luciferase, positions 40–359 of SEQ ID NO: 4, without signal sequence (protein, listed as Oplophorus gracilorostris)
chain: AVACPAAEDIAPCTCKVGEGDVMDMDCSKVTSDAELASIFSKTFPSNTFRELFIEFNREITTLTADSLGAATFTKIAITSCTQLKTIEENAFMASAATLEKLVLLKNDLSSFPFEEMSQYTKLNWLELSVNSITGWPALSSDTLANLILFRNPIGNIPVDAFQTLPNIEQFNCFDCSITEVEAGTFTRSPKLQKLVLGYNGLTSLPVGAIKLHGHGPTTSNLGITNNQIISFPEGAVEGIQGILGIDFNRVTSLSEEVWRPILENLFQFSLLNNPLACVCDVMWLIDSPELLAKIKGNPRCAGGKRLKNLDPAVFHAMCQ
[1]
  Luminescence Activity: <0.001 rlu
[2]
  Luminescence activity in Cell extracts, Coelenterazine: <0.001 rlu
  Luminescence activity in Medium, Coelenterazine: 2.45 rlu
[3]
  Luminescence activity in Cell extracts, Bisdeoxy-coelenterazine: <0.001 rlu
